The target of data set [1] is mouse anti-GM1 IgG2b(κ) antibody GB2 (mouse). Briefly: high-speed atomic force microscopy; antibody at 10 μg/mL in phosphate-buffered saline, 3 min on a mica-supported DOPC bilayer with GM1 (rings at >25% GM1; 50% GM1 in Figure 4), unbound antibody washed off; room temperature.
Data set [2] deals with the molecule itself. Briefly: crystal structure; apo Fc of GB2; 16% PEG3350, 0.2 M lithium chloride, 0.1 M Bis-Tris pH 6.5, 20 °C; P2(1)2(1)2(1), three Fc dimers per asymmetric unit, 2.30 Å.

As a reminder, the stoichiometry N is the number of molecules, sites or subunits per partner or assembly. For the molecule mouse anti-GM1 IgG2b(κ) antibody GB2, the stoichiometry N in data set [1] stood at 6.

B1: Fc fragment of GB2 (mouse IgG2b-Fc, apo form) (domain or fragment)
chain: CPAPNLEGGPSVFIFPPNIKDVLMISLTPKVTCVVVDVSEDDPDVQISWFVNNVEVHTAQTQTHREDYNSTIRVVSTLPIQHQDWMSGKEFKCKVNNKDLPSPIERTISKIKGLVRAPQVYILPPPAEQLSRKDVSLTCLVVGFNPGDISVEWTSNGHTEENYKDTAPVLDSDGSYFIYSKLNMKTSKWEKTDSFSCNVRHEGLKNYYLKKTISRSPG
notes: Fc fragment of the mouse IgG2b heavy chain of GB2, cut by papain; Fc dimer; three Fc dimers per asymmetric unit in the crystal; also called apo Fc; source: papain digestion of GB2 from mouse hybridoma, purified (Affi-gel protein A column)
In the case of B1, the “stoichiometry N” value in data set [2] stood at 3.

Source of the values: paper PMC6981440 (International Journal of Molecular Sciences, 2019).
